The target of the assay is amyloid-b1-42 peptide (UniProt P05067). Put plainly: cell-based or functional assay.
amyloid-b1-42 peptide, sequence (P05067 672-713 limits assumed): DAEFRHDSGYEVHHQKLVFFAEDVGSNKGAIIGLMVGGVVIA

T7-RRR-CsgB133-142-PPP, sequence (P19727 1-348, tags or fused parts left off): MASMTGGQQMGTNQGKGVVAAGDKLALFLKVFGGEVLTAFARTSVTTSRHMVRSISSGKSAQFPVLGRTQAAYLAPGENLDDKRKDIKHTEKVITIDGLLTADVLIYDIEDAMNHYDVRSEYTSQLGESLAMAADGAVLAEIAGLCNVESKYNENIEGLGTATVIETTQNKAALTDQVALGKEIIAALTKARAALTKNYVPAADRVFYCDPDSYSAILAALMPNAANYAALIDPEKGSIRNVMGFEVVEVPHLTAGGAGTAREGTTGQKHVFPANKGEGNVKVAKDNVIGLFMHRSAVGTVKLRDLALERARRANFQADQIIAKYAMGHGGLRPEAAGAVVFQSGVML

In the case of “T7-RRR-CsgB133-142-PPP (from UniProt P19727 1-348)”, the Aβ:peptide molar ratio at the doubling of the lag time turned out to be 70000 and the phage concentration that doubles the lag time of Aβ fiber formation is 5e+07 PFU/mL.
